The supplement of paper PMC9112550, “Optimization of the antimicrobial peptide Bac7 by deep mutational scanning” (BMC Biology, 2022)

system: Escherichia coli TOP10; assay: shrunken log2 fold change of peptide-encoding DNA abundance (4.5 h post-induction vs induction); higher = less antimicrobial activity (less host growth inhibition); details: time post-induction: 4.5 h; library: site-saturation at positions 5, 18, 19, 20
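Also: peptides expressed intracellularly from a pBAD plasmid library in pooled LB shake-flask culture, induced with 0.3% L-arabinose, DNA abundance read by NGS, three biological replicates, DESeq2 with apeglm shrinkage.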

Sequence	shrunken log2 fold change
RRIRSRPPRLPRPRPRPEEHPRP	-0.0107
RRIRMRPPRLPRPRPRPWEVPRP	-0.00931
RRIRIRPPRLPRPRPRPGWRPRP	0.468
RRIRQRPPRLPRPRPRPCMQPRP	-0.238
RRIRTRPPRLPRPRPRPWFSPRP	-0.152
RRIRCRPPRLPRPRPRPRPTPRP	0.808
RRIRDRPPRLPRPRPRPWIPPRP	-0.0565
RRIRQRPPRLPRPRPRPGLKPRP	0.0245
RRIRFRPPRLPRPRPRPGLVPRP	-0.0941
RRIRQRPPRLPRPRPRPEPRPRP	0.508
RRIRSRPPRLPRPRPRPNAQPRP	0.0609
RRIRNRPPRLPRPRPRPYQEPRP	-0.00962
RRIRERPPRLPRPRPRPCFKPRP	-0.0311
RRIRFRPPRLPRPRPRPCNWPRP	0.128
RRIRPRPPRLPRPRPRPDESPRP	-0.188
RRIRFRPPRLPRPRPRPENCPRP	-0.855
RRIRRRPPRLPRPRPRPSHTPRP	0.278
RRIRARPPRLPRPRPRPPGGPRP	0.864
RRIRWRPPRLPRPRPRPMIAPRP	0.00921
RRIRKRPPRLPRPRPRPFIRPRP	-0.21
RRIRNRPPRLPRPRPRPGTQPRP	-0.128
RRIRVRPPRLPRPRPRPGYCPRP	-0.307
RRIRCRPPRLPRPRPRPKYDPRP	-0.605
RRIRARPPRLPRPRPRPYDDPRP	0.192
RRIRGRPPRLPRPRPRPAPWPRP	0.891

Sequence	shrunken log2 fold change
RRIRRRPPRLPRPRPRPCDAPRP	0.221
RRIRARPPRLPRPRPRPFGVPRP	0.165
RRIRERPPRLPRPRPRPGGYPRP	-0.563
RRIRKRPPRLPRPRPRPNIKPRP	-0.284
RRIRIRPPRLPRPRPRPLRWPRP	1.02
RRIRTRPPRLPRPRPRPGPWPRP	0.215
RRIRCRPPRLPRPRPRPIYWPRP	-0.815
RRIRRRPPRLPRPRPRPTWKPRP	0.112
RRIRMRPPRLPRPRPRPYIAPRP	-0.038
RRIRSRPPRLPRPRPRPCDPPRP	0.0442
RRIRQRPPRLPRPRPRPQGWPRP	-0.151
RRIRCRPPRLPRPRPRPYQKPRP	-0.0372
RRIRVRPPRLPRPRPRPYILPRP	-0.278
RRIRQRPPRLPRPRPRPTRIPRP	0.0389
RRIRCRPPRLPRPRPRPSHTPRP	-0.283
RRIRVRPPRLPRPRPRPLHVPRP	-0.311
RRIRARPPRLPRPRPRPTKWPRP	0.4
RRIRDRPPRLPRPRPRPWLTPRP	-0.0223
RRIRLRPPRLPRPRPRPVYDPRP	-0.0147
RRIRNRPPRLPRPRPRPAKHPRP	0.027
RRIRCRPPRLPRPRPRPHTKPRP	-0.309
RRIRNRPPRLPRPRPRPVMKPRP	0.0939
RRIRLRPPRLPRPRPRPWAAPRP	0.15
RRIRSRPPRLPRPRPRPRCPPRP	0.177
RRIRMRPPRLPRPRPRPARRPRP	1.35

Sequence	shrunken log2 fold change
RRIRSRPPRLPRPRPRPLTPPRP	0.166
RRIRLRPPRLPRPRPRPQKMPRP	-0.0278
RRIRIRPPRLPRPRPRPWPVPRP	-0.0355
RRIRYRPPRLPRPRPRPQCEPRP	-0.0652
RRIRTRPPRLPRPRPRPDNLPRP	-0.479
RRIRHRPPRLPRPRPRPVQTPRP	-0.011
RRIRLRPPRLPRPRPRPKMWPRP	0.485
RRIRGRPPRLPRPRPRPEFSPRP	1.15
RRIRCRPPRLPRPRPRPLPAPRP	0.574
RRIRERPPRLPRPRPRPSCLPRP	-0.484
RRIRPRPPRLPRPRPRPVVTPRP	-0.207
RRIRDRPPRLPRPRPRPPVWPRP	1.04
RRIRMRPPRLPRPRPRPDNNPRP	0.274
RRIRFRPPRLPRPRPRPNDSPRP	-0.0675
RRIRERPPRLPRPRPRPQFTPRP	-0.472
RRIRHRPPRLPRPRPRPSLFPRP	-0.625
RRIRCRPPRLPRPRPRPYVHPRP	-1.53
RRIRTRPPRLPRPRPRPPLAPRP	0.65
RRIRDRPPRLPRPRPRPKGLPRP	0.253
RRIRQRPPRLPRPRPRPPYNPRP	-0.154
RRIRYRPPRLPRPRPRPSRAPRP	-0.113
RRIRLRPPRLPRPRPRPFTIPRP	-0.174
RRIRSRPPRLPRPRPRPWWIPRP	0.0584
RRIRHRPPRLPRPRPRPYKWPRP	-0.0842
RRIRWRPPRLPRPRPRPPSYPRP	-0.116

Sequence	shrunken log2 fold change
RRIRTRPPRLPRPRPRPDIKPRP	-0.197
RRIRARPPRLPRPRPRPKHRPRP	0.556
RRIRMRPPRLPRPRPRPPHRPRP	0.567
RRIRPRPPRLPRPRPRPKNMPRP	-0.436
RRIRMRPPRLPRPRPRPRSYPRP	0.068
RRIRYRPPRLPRPRPRPNHPPRP	-0.125
RRIRNRPPRLPRPRPRPAYCPRP	-0.0951
RRIRHRPPRLPRPRPRPKHYPRP	-0.577
RRIRARPPRLPRPRPRPSWRPRP	0.263
RRIRKRPPRLPRPRPRPDEHPRP	0.0292
RRIRLRPPRLPRPRPRPLFHPRP	-0.233
RRIRVRPPRLPRPRPRPIYSPRP	-0.203
RRIRERPPRLPRPRPRPHQNPRP	0.0506
RRIRNRPPRLPRPRPRPIYYPRP	-0.977
RRIRPRPPRLPRPRPRPLHNPRP	-0.201
RRIRNRPPRLPRPRPRPGLFPRP	0.0823
RRIRGRPPRLPRPRPRPASIPRP	0.371
RRIRCRPPRLPRPRPRPFSYPRP	-0.947
RRIRIRPPRLPRPRPRPKCGPRP	-0.0309
RRIRPRPPRLPRPRPRPNDTPRP	-0.338
RRIRPRPPRLPRPRPRPYESPRP	-0.186
RRIRERPPRLPRPRPRPPWMPRP	-0.22
RRIRIRPPRLPRPRPRPVTNPRP	-0.208
RRIRIRPPRLPRPRPRPDYEPRP	-0.0916
RRIRNRPPRLPRPRPRPCAWPRP	-0.147

Sequence	shrunken log2 fold change
RRIRNRPPRLPRPRPRPAEWPRP	0.412
RRIRARPPRLPRPRPRPHHEPRP	-0.119
RRIRIRPPRLPRPRPRPHAEPRP	-0.217
RRIRMRPPRLPRPRPRPICNPRP	-0.0126
RRIRNRPPRLPRPRPRPMVSPRP	-0.145
RRIRFRPPRLPRPRPRPEWMPRP	0.236
RRIRHRPPRLPRPRPRPHFMPRP	0.00955
RRIRNRPPRLPRPRPRPRAVPRP	1.21
RRIRPRPPRLPRPRPRPECFPRP	0.122
RRIRSRPPRLPRPRPRPKMVPRP	-0.309
RRIRMRPPRLPRPRPRPVDKPRP	0.0379
RRIRLRPPRLPRPRPRPRQWPRP	0.223
RRIRYRPPRLPRPRPRPFMSPRP	-0.348
RRIRFRPPRLPRPRPRPTMQPRP	0.219
RRIRKRPPRLPRPRPRPSDVPRP	-0.157
RRIRWRPPRLPRPRPRPVPNPRP	0.0838
RRIRRRPPRLPRPRPRPAAVPRP	0.462
RRIRSRPPRLPRPRPRPWVMPRP	-0.0894
RRIRLRPPRLPRPRPRPVKQPRP	-0.0196
RRIRQRPPRLPRPRPRPPLQPRP	0.218
RRIRSRPPRLPRPRPRPRASPRP	0.346
RRIRCRPPRLPRPRPRPMTYPRP	-0.185
RRIRWRPPRLPRPRPRPKCVPRP	-0.0153
RRIRWRPPRLPRPRPRPGNKPRP	-0.0586
RRIRVRPPRLPRPRPRPHEKPRP	0.0571

Sequence	shrunken log2 fold change
RRIRTRPPRLPRPRPRPDVPPRP	-0.0167
RRIRPRPPRLPRPRPRPNAEPRP	0.154
RRIRDRPPRLPRPRPRPEWSPRP	0.364
RRIRDRPPRLPRPRPRPRDGPRP	0.81
RRIRNRPPRLPRPRPRPRMYPRP	-0.613
RRIRVRPPRLPRPRPRPVWYPRP	-0.154
RRIRERPPRLPRPRPRPMMVPRP	0.0544
RRIRARPPRLPRPRPRPPSVPRP	0.479
RRIRHRPPRLPRPRPRPPISPRP	-0.378
RRIRQRPPRLPRPRPRPCKQPRP	0.0108
RRIRCRPPRLPRPRPRPPWIPRP	-0.209
RRIRYRPPRLPRPRPRPSDCPRP	-0.0875
RRIRFRPPRLPRPRPRPQMNPRP	-0.709
RRIRFRPPRLPRPRPRPGYIPRP	-0.0716
RRIRLRPPRLPRPRPRPFRGPRP	-0.0479
RRIRARPPRLPRPRPRPQQSPRP	0.54
RRIRLRPPRLPRPRPRPNLFPRP	-0.0622
RRIRQRPPRLPRPRPRPVIHPRP	-0.455
RRIRGRPPRLPRPRPRPIQFPRP	-0.146
RRIRHRPPRLPRPRPRPWMHPRP	0.0155
RRIRMRPPRLPRPRPRPECEPRP	0.206
RRIRDRPPRLPRPRPRPSTLPRP	-0.267
RRIRLRPPRLPRPRPRPGQRPRP	0.0889
RRIRSRPPRLPRPRPRPNWYPRP	-0.382
RRIRTRPPRLPRPRPRPAVYPRP	-0.181
